Results: publication PMC7901269 (Cell, 2021)

B1: chimera 253H/165L (Fab, V domains shown)
VH: not shown
VL: DIVMTQSPGTLSLSPGERATLSCRASQSVRSSYLAWYQQKPGQAPRLLIYGASRRGTGIPDRFSGSGSGTDFTLTISRLEPEDFAVYYCQQYGSSPWTFGQGTKVEIK
notes: also called 253-165; 353/165; source: from Dejnirattisai et al., 2021; human mAbs expressed in HEK293T cells
B2: mAb 150 (Fab, V domains shown)
VH: QVQLVESGGGLIQPGGSLRLSCAASGVTVSSNYMSWVRQAPGKGLEWVSIIYSGGTTYYADSVKGRFTISRDSSMNTLYLQMNSLRAEDTAVYYCARDLMVYGIDVWGQGTTVTVSS
VL: EIVMTQSPSSLSASVGDRVTITCRASQGISSYLAWYQQKPGKAPKLLIYAASTLQSGVPSRFSGSGSGTDFTLTISSLQPEDFATYYCQQLDSYPPGYTFGQGTKVDIK
notes: source: from Dejnirattisai et al., 2021; human mAbs expressed in HEK293T cells
B3: mAb 88 (Fab, V domains shown)
VH: QLQLQESGPGLVKPSQTLSLTCTVSGGSISSGSYNWTWIRQPAGKGLEWIGRIYNSGSTNYNPSLKSRVTISVDTSKNQLSLKVRSVTAADTAVYYCARHCSGGTCYPKYYYGMDVWGQGTTVTVSS
VL: QSALTQPPSVSEAPRQRVTISCSGSSSNIGNNAVNWYQQFPGKAPKLLIYYDDLLPSGVSDRFSGSKSGTSASLAISGVQSEDEADYYCAAWDDSLNVVVFGGGTKLTVL

Target: His-tagged SARS-CoV-2 RBD (native RBD) (SARS-CoV-2, Wuhan (native RBD), UniProt P0DTC2)
Test: BLI
Details: both partners purified

Binder | Kd [nM]
B1 | 0.73
B2 | 0.19
B3 | 0.64
